In patent US20130039916A1 (Merck Sharp & Dohme, published 2013):
Positions count from the first letter of the chain named. Where “and” joins values, the source holds several entries; their conditions need not be identical. Identical values can stand only once.

T1: "Non-linked" human IL-23 (human p40 coexpressed in 293T cells with human p19:FLAG-tag peptide) (human, UniProt P29460 23-328)
T1 sequence 1: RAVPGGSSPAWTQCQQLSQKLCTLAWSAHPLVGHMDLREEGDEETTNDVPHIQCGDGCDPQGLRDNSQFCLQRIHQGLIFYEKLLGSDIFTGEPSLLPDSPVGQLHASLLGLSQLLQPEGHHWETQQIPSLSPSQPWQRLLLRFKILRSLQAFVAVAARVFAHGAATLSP
T1 sequence 2: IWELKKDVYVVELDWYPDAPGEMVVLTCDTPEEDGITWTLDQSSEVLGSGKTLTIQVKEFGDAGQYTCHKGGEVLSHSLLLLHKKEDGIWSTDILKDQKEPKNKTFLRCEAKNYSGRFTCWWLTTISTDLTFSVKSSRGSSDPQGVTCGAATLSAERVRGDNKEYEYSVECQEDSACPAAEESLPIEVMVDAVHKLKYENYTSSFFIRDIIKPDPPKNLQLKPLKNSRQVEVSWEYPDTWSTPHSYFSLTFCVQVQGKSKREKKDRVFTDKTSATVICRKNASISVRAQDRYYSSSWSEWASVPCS

T2: non-tagged, non-linked native human IL-23p19/p40 coexpressed in SF9 cells (eBioscience CAT No. 34-8239) (human, UniProt P29460 23-328)
T2 sequence 1: T1 sequence 1
T2 sequence 2: T1 sequence 2

T3: human IL-23 (form not stated) (human, UniProt P29460 23-328)
T3 sequence 1: T1 sequence 1
T3 sequence 2: T1 sequence 2

B1: mouse anti-human IL-23p19 antibody 3D7 (antibody, V domains shown)
VH: QVQLQQSGPELVKPGASVKISCKASGYSFTSYYIHWVKQRPGQGLEWIGWIFPGSGNTKYNEKFKGKATLTADTSSTTAYMQLSSLTSEASAVYFCAREGLHYFGLYAMDYWGHGTSVTVSS
VL: DIQMTQTTSSLSASLGDRVTISCSASQGISNYLNWFQQKPDGTVKLLIYYTSSLHSGVPSRFSGSGSGTDYSLTISNLEPEDIATYYCQQYSKLPYTFGGGTKLEIKR
notes: also called m3D7
B2: mouse anti-human IL-23p19 antibody 7G10 (antibody, V domains shown)
VH: EVQLQQSGPELVKPGASVKMSCKASGYTFTSNVMHWVKQKPGQGLEWIGYINPYNDGTKYNEKFKGKATLTSDKSSSTAYMELSSLTSEDSAVYYCARNWDVAYWGQGTLVTVSA
VL: DIVMTQSPATLSVTPGDRVSLSCRASQSISDYLHWYRQKSHESPRLLIKYASQSISGIPSRFSGSGSGSDFTLSINSVEPEDVGVYYCQNGHSFPFTFGSGTKLEIKR
B3: mouse anti-human IL-23p19 antibody 33B12 (antibody, V domains shown)
VH: QVQLQQSGAELARPGASVKLSCKASGYTFTSYSLKWVKQRTGQGLEWIGEIHPRSGNTHYNEKFKGKATLTADKSSSTAYMDLRSLTSEDSAVYFCATNWDLGYWGQGTTITVSS
VL: B2 VL with M4L, Y36F, R37Q, K39R
notes: also called m33B12
B4: mouse anti-human IL-23p19 antibody 16F7 (antibody, V domains shown)
VH: EVQLVESGGDLVKPGGSLKLSCAASGFIFNSYGMSWVRQTPDKRLEWVATISSGGRNTYYPDSVKGRFTISRDNAKNTLYLQMSSLKSEDTAMYYCARQGGYEGYVDVWGIGTTVTVSS
VL: DIVMTQSHRFMSTSVGDRVSITCKASQDVSSAVAWYQQKPGQSPNLLIYSASFRNTGVPDRFTGSGSGTDFTFTISGVQAEDLAVYYCQQHHSTPLTFGAGTKLELKR
B5: mouse anti-human IL-23p19 antibody 2G12 (antibody, V domains shown)
VH: B2 VH with S31C, N32C, V33I, M34L, S77R, N99R, V102E
VL: B2 VL with D31A, R37Q, V85I
B6: mouse anti-human IL-23p19 antibody 1D6 (antibody, V domains shown)
VH: EVQLQQSGPDLVKPGASVKMSCKASGYTFTAYLIHWVKRSHGKSLDWIGYINPNDGVTSYNQKFKGKATLTVNKSSGTAYMELRSLTSEDAAVYYCTLNWDLDYWGQGTTLTVSS
VL: B2 VL with R37Q, N76T, S77N, V85I
B7: mouse anti-human IL-23p19 antibody 2C6 (antibody, V domains shown)
VH: EVQLQQSGPELVKPGASVKMSCKASGYTFTRYLIHWVKQKPGQGLEWIGYVNPYNDGTNYNEKFRGKATLTSDKSSSTAYMELSSLTSEDSAVYYCTSNWDLNYWGQGTTLTVSS
VL: B2 VL with H34Y, R37Q, Y87F
B8: mouse anti-human IL-23p19 antibody 17G8 (antibody, V domains shown)
VH: QAQLQQSGSELARPGASVKLSCKASGYTFTSYGIKWVKQRTGQGLEWIGEIFPRSGQTIYNENFKGKATLTADKSSSTAYMELRSLTSEDSAVYFCAANWDLDYWGQGTILTVSS
VL: B2 VL with V3M, V85I, F96Y, S100G
B9: mouse anti-human IL-23p19 antibody 3C4 (antibody, V domains shown)
VH: B8 VH with A2V, S9G, T41F, S55G, Q57N, I59Y, N63K, A97T, I110T
VL: B2 VL with R37Q, P80S, E105K
B10: mouse anti-human IL-23p19 antibody 8E9 (antibody, V domains shown)
VH: EVQLQQSGPELVKPGASVKMSCKASGYTFTAYLIHWVKQSHGKSLEWIGYINPNNGGTNYNQKFKDKATLTVNKSSATAYMELRSLTSEDSAVFYCSSNWDLDYWGRGTTLTVSS
VL: B2 VL with S30G, R37Q, S40L, Q53R, D70Y, P80A, Y87F
B11: mouse anti-human IL-23p19 antibody 20H7 (antibody, V domains shown)
VH: B8 VH with S9G, S31N, N63K, S88F
VL: B2 VL with V3M, Y87F, F96Y, S100G
B12: mouse anti-human IL-23p19 antibody 15G2 (antibody, V domains shown)
VH: B7 VH with R31N, I34M, V51I, R65K, V93I, Y95F, N103D
VL: B2 VL with R37Q, T72I, S74N, F96Y, S100G
B13: mouse anti-human IL-23p19 antibody 20A4 (antibody, V domains shown)
VH: B8 VH with S9G, R40G, I59Y, N63K, A98S
VL: B2 VL with Y32F, A51V, E79D, F96Y, S100G
B14: mouse anti-human IL-23p19 antibody 18E1 (antibody, V domains shown)
VH: B7 VH with Y27N, L33V, I34M, H35N, V51I, R65K, S77T, T97V, S98H, N103D
VL: B2 VL with D31H, H34Y, R37Q, V85M, F96Y, S100G
B15: mouse anti-human IL-23p19 antibody 14A3 (antibody, V domains shown)
VH: EVILVESGGGFVKPGGSLKLSCAASGFTFSNYGMSWVRQTPDKGLEWVATISTGGRYIYYSDTVKGRFTISRDNAKSTLYLKMSSLRSEDTAVHFCARHEGDRYYGWYFDVWGAGTTVTVSS
VL: DIVLTQSPASLAVSLGQRATISCKASQSVDYDGESYMNWYQQKPGQPPKLLIYTSSSLASGIPARFSGSGSGTNFTLNIHPVEEEDAATYCCQQGNEDLFTFGSGTKLEIKR
B16: mouse anti-human IL-23p19 antibody 12C11 (antibody, V domains shown)
VH: EVMLVESGGGLVKPGGSLKLSCAASGFTFSNYGMSWVRQSPERGLEWVATISTGGRYTFYSDTVKGRFTISRDNARNTLYLKMSSLISEDTAVHYCARHEGDTYYGWYFDVWGAGTTVTVSS
VL: B15 VL with Q27H, G33V, E34D, Y36F, Y53F, T54A, A59E, T76I, C91Y
B17: mouse anti-human IL-23p19 antibody 7D7 (antibody, V domains shown)
VH: QVQLQQSGAELAKPGASVKLSCKASGYTFTNYWMDWVKQRPGQGLEWIGYINPSSGYVEYNQKFKYKATLTADKTSSTAYMQLSSLTYDDSAVYYCARSPPYYYANTYWSFDVWGTGTTVTVSS
VL: DIGLTQSPASLAVSLGQRATISCRASKSVSTSGYSFMHWYQQKPGQPPKLLIYLASNLESGVPARFSGSGSGTDFILNIHPVEEEDAATYYCQHSRELPLAFGAGTKLELTP
notes: also called m7D7
B18: mouse anti-human IL-23p19 antibody 13F11 (antibody, V domains shown)
VH: B2 VH with Y27H, F29L, S31R, N32Y, V33L, K38Q
VL: B2 VL with S28T, R37Q, D70H
notes: also called m13F11
B19: mouse anti-human IL-23p19 antibody 49A10 (antibody, V domains shown)
VH: EVQLQQSGPELVKPGASVKISCKASGYTFTDYYMNWVKQSHGKSLEWFGDINPNNGDTSYNQKFKGKATLTVDKSSSTAYMELRSLTSEDSADYYCARPHYRNWYFDVWGTGTTVIVSS
VL: DIVLTQSPASLVVSLGQRATISCRASKSVSTSGYSFLNWYQQKPGQPPKLLIYLASNLESGVPARFSGSGSGTDFTLNIHPVEAEDATTYYCQHSRELPLTFGSGTKLEMKR
notes: also called m49A10

These binders were tested against T4, "Elastikine" human IL-23 (single chain FLAG-tag:GLU-tag:human p40:elasti-linker:human p19, expressed in 293T … (human, UniProt P29460 23-328)) (assay: cell-based or functional assay).

IC50 (pM), blocking of Ba/F3 cell proliferation | Binder
3 pM | B1
22 pM and 18 pM | B2
4 pM and 3 pM | B3

What follows are binders tested against T1, "Non-linked" human IL-23 (human p40 …) (assay: cell-based or functional assay).

IC50 (pM), blocking of Ba/F3 cell proliferation | Binder
37 pM | B1
141 pM | B4
3000 pM | B2
183 pM | B5
16 pM | B6
11 pM | B7
3 pM | B8
12 pM | B9
193 pM | B3
8 pM | B10
3 pM | B11
133 pM | B12
5 pM | B13
48 pM | B14
135 pM | B15
57 pM | B16

The binders below were run against T2, non-tagged, non-linked native human … (assay: cell-based or functional assay).

IC50 (pM), blocking of Ba/F3 cell proliferation | Binder
2 pM | B1
57 pM | B3

Each binder was assayed against T3, human IL-23 (form not stated) (assay: cell-based or functional assay).

Splenocyte assay IC50 (IL-17 production by mouse splenocytes) | Binder
155 pM | B4
106 pM | B5
27 pM | B6
37 pM | B7
18 pM | B8
14 pM | B9
34 pM | B10
33 pM | B11
95 pM | B12
24 pM | B13
92 pM | B14
53 pM | B15
79 pM | B16

What follows are binders tested against T4, "Elastikine" human IL-23 (single chain …) (assay: KinExA, solution equilibrium).
Method: The equilibrium dissociation constant (Kd) for anti human IL-23 antibodies is determined using the KinExA 3000 instrument. Sapidyne Instruments Inc., Boise Id., USA KinExA uses the principle of the Kinetic Exclusion Assay method based on measuring the concentration of uncomplexed antibody in a mixture of antibody, antigen and antibody-antigen complex. The concentration of free antibody is measured by exposing the mixture to a solid-phase immobilized antigen for a very brief period of time. In practice, this is accomplished by flowing the solution phase antigen-antibody mixture past antigen-coated particles trapped in a flow cell. Data generated by the instrument are analyzed using custom software. Equilibrium constants are calculated using a mathematical theory based on the following assumptions:
98 micron PMMA particles (Sapidyne, Cat No. 440198) are coated with biotinylated rhIL-23 according to Sapidyne “Protocol for coating PMMA particles with biotinylated ligands having short or nonexistent linker arms”. To make biotinylated rhIL-23, EZ-link TFP PEO-biotin (Pierce, Cat. No. 21219) is used according to manufacturer's recommendations (Pierce bulletin 0874). Experimental procedures are done according to the KinExA 3000 manual.
KinExA experiments are performed essentially as described at Example 3 of U.S. Patent Application Publication No. 2007/0048315.

Kd | Binder
0.84 pM | B1
2.7 pM | B17
11 pM | B18
6.8 pM | B3
7.4 pM | B19
